We go through one molecule from patent US20240016917A1 (ACADEMIA SINICA, published 2024).

The target in the experiment is SARS-CoV-2 S protein S1 (SARS-CoV-2, UniProt P0DTC2 16-685).

B1: monoclonal antibody (mAb) m31A7 (antibody, V domains shown)
VH: EVQLQQSGPEMVKPGASVKISCKTSGYTFTEYTIYWVKQSHGKSLEWLGGINPNIGDTTYNQKFKGKATLTVDTSSSTAYMELRSLTSEDSAVYYCAREVYNYSFAYWGQGTLVTVSA
VL: DIVMSQSPSSLAVSVGEKVTMSCKSSQSLLYSSNQKNYLAWYQQKLGQTPKLLIYWASSRESGVPDRFTGSGSGTDFTLTISSVRAEDLAVYYCQQYYRYPLTFGVGTKLELKR
B1 registered an EC50 of 0.0235 nM.

The term EC50 denotes the concentration giving half of the maximal effect. Lower therefore signals an effect from little substance.
